Assay results: publication PMC12431856, “Synthetic ZFTA fusions pinpoint disordered protein domain acquisition as a mechanism of brain tumorigenesis”

Biological target: ZFTA ZF1 (UniProt C9JLR9 81-172)
Assay: fluorescence polarization; FP: 25 mM citrate pH 5.6, 150 mM NaCl, 0.5 mM TCEP, 100 nM DNA, 15 nM-7.5 uM protein, 20 min, room temperature; NMR: same buffer with 5% D2O, 25 C
Details: protein: recombinant; tags: none (His6-MBP removed by TEV); label: 5'-Cy5 on top strand; blunt

Chain of ZFTA ZF1 (C9JLR9 81-172): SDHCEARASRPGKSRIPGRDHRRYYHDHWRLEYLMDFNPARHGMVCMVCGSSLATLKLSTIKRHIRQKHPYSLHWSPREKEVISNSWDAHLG

B1: Cy5 PLAGL motif DNA (dsDNA)
DNA 1: GATCCATGGCCCCATGGATG
DNA 2: CATCCATGGGGCCATGGATC
Q: Does B1 bind?
A: binds
